{"source": "patent US10391180B2", "about": "“Self-assembling complex for targeting chemical agents to cells” (CEDARS-SINAI MEDICAL CENTER, priority 2007, dated 2019)", "key": {"MDA-MB-435 cells": {"system": "MDA-MB-435 cells", "experiment": "Intracellular translocation in live cells, Dox fluorescence microscopy", "assay_type": "cell-based", "conditions": "for intracellular location of Dox fluorescence: 0.5 uM", "procedure": "FIGS. 14 (A)-(B) illustrates comparison of HerDox and Dox intracellular translocation and targets in live cells. MDA-MB-435 cells were incubated with HerDox or free Dox (0.5 uM) at 37° C. Live (unfixed) cells were imaged by brightfield and fluorescence as depicted in […], or DIC and confocal fluorescence, as depicted in FIG. 14 (B), microscopy. Dox is indicated by red or magenta pseudocolor.\nTo understand the mechanism of HerDox mediated tumor cell death, the inventors examined HER2+ cells microscopically after treatment with HerDox, using Dox fluorescence to detect intracellular location. […] These dynamics, in addition to earlier targeting results, support a receptor-mediated HerDox entry mechanism. Even the intranuclear pattern of Dox when delivered by HerPBK10 differs from free Dox."}, "T47D": {"system": "T47D", "experiment": "Cytotoxicity on cell lines (Table I)", "assay_type": "cell-based", "conditions": "50% reduction in cell survival, mean ± 1 SD, read-out: EC50** (uM HerDox)", "procedure": "FIGS. 17 (A)-(B) illustrates relative cell surface HER subunit levels and cytotoxicity on cell types. FIG. 17 (A) depicts a graph of relative cell surface HER subunit levels as measured by ELISA. Cells were incubated with anti-HER subunit antibodies followed by HRP-conjugated secondary antibodies using standard procedures. Relative cell numbers were measured by crystal violet staining and quantified by measuring crystal violet absorbance at 590 nm. Relative subunit levels are reported as the ELISA signal of each cell population normalized by the relative cell number, or Abs 450 run/590 nm. FIG. 17 (B) depicts toxicity to cells displaying differential HER2. Cytotoxicities from a range of HerDox doses were assessed on each cell line by metabolic assay and confirmed by crystal violet stain. CD50 values shown in log scale were determined by non-linear regression analyses of HerDox dose curves using a scientific graphing program and confirmed using a calculator. The relative HER2 level of each cell line is shown next to each CD50 value."}}}
{"molecule": "HerDox: non-covalent complex of HerPBK10, a small double-stranded nucleic acid and intercalated Dox (conjugate, left off: small tags and cut ends, non-covalent complex of HerPBK10, a small double-stranded nucleic acid and intercalated Dox) LPPRLKEMKSQESAAGSKLVLRCETSSEYSSLRFKWFKNGNELNRKNKPQNIKIQKKPGKSELRINKASLADSGEYMCKVISKLGNDSASANITIVESNEIITGMPASTEGAYVSSESPIRISVSTEGANTSSSTSTSTTGTSHLVKCAEKEKTFCVNGGECFMVKDLSNPSRYLCKCQPGFTGARCTENVPMKVQNQEKAEELYMRRAAMYEEGPPPSYESVVSAAPVAAALGSPFDAPLDPPFVPPRYLRPTGGRNSIRYSELAPLFDTTRVYLVDNKSTDVASLNYQNDHSNFLTTVIQNNDYSPGEASTQTINLDDRSHWGGDLKTILHTNMPNVNEFMFTNKFKARVMVSRLPTKDNQVELKYEWVEFTLPEGNYSETMTIDLMNNAIVEHYLKVGRQNGVLESDIGVKFDTRNFRLGFDPVTGLVMPGVYTNEAFHPDIILLPGCGVDFTHSRLSNLLGIRKRQPFQEGFRITYDDLEGGNIPALLDVDAYQASLKDDTEQGGGGAGGSNSSGSGAEENSNAAAAAMQPVEDMNDHAIRGDTFATRAEEKRAEAEAAAEAAAPAAQPEVEKPQKKPVIKPLTEDSKKRSYNLISNDSTFTQYRSWYLAYNYGDPQTGIRSWTLLCTPDVTCGSEQVYWSLPDMMQDPVTFRSTRQISNFPVVGAELLPVHSKSFYNDQAVYSQLIRQFTSLTHVFNRFPENQILARPPAPTITTVSENVPALTDHGTLPLRNSIGGVQRVTITDARRRTCPYVYKALGIVSPRVLSSRTFKKKKKKKKKK", "values": [{"measurement": "intracellular location of Dox fluorescence", "setting": "MDA-MB-435 cells; 0 min of uptake", "result": "mostly at the cell periphery"}, {"measurement": "intracellular location of Dox fluorescence", "setting": "MDA-MB-435 cells; 60 min", "result": "accumulated in the nucleus"}, {"measurement": "intranuclear pattern of Dox", "setting": "MDA-MB-435 cells; live cells, confocal", "result": "preferentially accumulates in nucleolar structures"}, {"measurement": "EC50", "setting": "T47D", "result": "0.64 ± 0.04", "unit": "µM"}]}
